According to patent publication US20140287419A1, “Compositions Having Dicamba Decarboxylase Activity and Methods of Use” (priority 2013, published 2014):
Positions count from the first letter of the chain named. Names and notes keep the numbering of the source.

B1: SEQ ID NO:1: 2,6-Dihydroxybenzoate Decarboxylase, Rhizobium sp. MTP-10005 (protein, listed as Rhizobium sp.)
chain: MAQGKVALEEHFAIPETLQDSAGFVPGDYWKELQHRLLDIQDTRLKLMDAHGIETMILSLNAPAVQAIPDRRKAIEIARRANDVLAEECAKRPDRFLAFAALPLQDPDAATEELQRCVNDLGFVGALVNGFSQEGDGQTPLYYDLPQYRPFWGEVEKLDVPFYLHPRNPLPQDSRIYDGHPWLLGPTWAFAQETAVHALRLMASGLFDEHPRLNIILGHMGEGLPYMMWRIDHRNAWVKLPPRYPAKRRFMDYFNENFHITTSGNFRTQTLIDAILEIGADRILFSTDWPFENIDHASDWFNATSIAEADRVKIGRTNARRLFKLDGA
B2: SEQ ID NO:122: Design variant of SEQ ID NO: 100 (protein)
chain: MAIIDCHGHYTTTPKGVEDYRNAQKAAVAKDPSFKGEKGQVVVSDDEIRESIENNQLKMQRERGTDLTIFSPRSTAGGHHIGNEYTSQFWTEHQNDLIRRVCDLFPKNFAPVAQLPQSPGVDPAKSVPEIVRTVEQMGFIGINLNPDPSGGYWKDTSLADRAFYPIYEKMVEYDIPAMIHPRNACNDCFHTTGSHALGADTTGFQQLIMSDVFKDFPSLKIIIPHGGGAVPYHWGRFRGLMQDQGYAPLEESALKNIYFDTCVYHQRGIDLLLDIVPTQNILFASDMIGAVRGIDPETGHNFDDTKRYIDNNTALNAEEKAMIFEGNARRVFSRLKTD
modifications: Dicamba decarboxylase variant clone DC.12.103
B3: N61A: point mutation N61A of SEQ ID NO:109 (protein)
chain: B1 chain with N61A, N235V
modifications: Dicamba decarboxylase variant clone DC.4.032
B4: 109 (protein)
chain: B1 chain with N235V
modifications: Dicamba decarboxylase variant clone DC.4.032

Assays:
[1] = Detection of 2,5-DCP product by GC/MS; assay type: biochemical; details: purified protein
[2] = Detection of 4-chloro-3-methoxy phenol product by LC-MS/MS; assay type: biochemical; details: purified protein
[3] = 14C assay with IPTG-induced recombinant E. coli cells (14CO2 capture from [14C]-carboxyl-labeled dicamba)
[4] = 14C assay with purified protein (14CO2 captured on Ca(OH)2 filter paper); assay type: biochemical; details: [14C]-carboxyl-labeled dicamba
[5] = Dicamba decarboxylation activity of computationally designed protein variants; details: for Dicamba Decarboxylase Activity: native protein or designed variant versus parent
[6] = Detection of 2,5-DCA product by toluene capture or head-space GC/MS; assay type: biochemical; details: purified protein, toluene capturing
Protocol: Alternatively, dicamba decarboxylase activity can be monitored by measuring decarboxylation products other than CO2 using product detection methods. The decarboxylation product of dicamba, 2,5-dichloro anisole or 2,5-DCA (FIG. 1C), is a volatile compound with a flash point of 21° C. To capture this volatile compound for detection, 140 ul of toluene solution is added on top of 1 ml reaction mixture to form a trapping layer in a 1.5 ml eppendorf tube. […] The reaction is kept still at room temperature overnight before being vortex mixed and centrifuged at 14,000 rpm for 15 minutes. The top toluene phase is carefully removed using a micropipette and transferred into a 12×32 mm polypropylene vial (Vial 11 mm) from MicroLiter Analytical Supplies, Inc. (catalog number 11-5300-100). The vial is sealed with Crimp seal (11 mm with FEP/Nat Rubber) from MicroLiter Analytical Supplies, Inc. (catalog number 11-0020A) using a E-Z Crimper™ 11 mm from Wheaton Inc. 1 ul of the toluene mixture is taken from the sealed vials and injected in splitless mode into a GC/MS system for sample analysis (Agilent GC/MS system with a 6890A GC, a 5973N MSD and a CTC CombiPAL auto-sampler or with a 7890A GC, a 5975C MSD and an Agilent GC Sampler 80 auto-sampler). The GC parameters are: Agilent DB-5MS column (30 m length, 0.25 mm diameter, 0.25 um film) or equivalent; The GC inlet temperature, 250° C.; Carry gas, helium in constant flow mode (1.2 mL/min); The GC oven temperature program, initial temperature at 70° C. for 1 min, ramping to 200° C. at 15° C./min, and then ramping to 250° C. at 30° C./min. MS data acquisition is done in SIM (selected ion monitoring) mode, monitoring the positive ion at M/Z 176 for the molecular ion of […]. The solvent delay for MS acquisition is set at 4 min. Another method for detection of 2,5-DCA is a head-space GC/MS method. Briefly, reaction mixtures in 500 ul reaction volume are prepared in 1.5 ml×32 mm glass vials (Microliter Analytical Supplies, Cat#11-1200) for head space analysis. Glass vials are sealed with magnetic cap from MicroLiter Analytical Supplies, Inc. (catalog number 11-0030AT) using a E-Z Crimper™ 11 mm from Wheaton Industries Inc. The reaction is carried out at room temperature for various amount of time and stopped by heating at 95° C. for 5 min. The reaction vial is transferred to a agitator for incubation at 80° C. for 5 min at 500 rpm. With a syringe preheated at 80° C., 1000 uL of head space is injected with sample fill speed at 100 uL/sec. GC/MS parameters for headspace analysis are the same as for liquid sample analysis.

[7] = Saturation mutagenesis of SEQ ID NO:109, dicamba decarboxylation activity of point mutants
[8] = Enzyme kinetic characterization (kcat, KM, kcat/KM) by PEPC/MDH coupled enzyme assay or GC/MS measurement of 2,5-DCP
[9] = purified protein, substrate dicamba

Row | Molecule | 2,5-DCP product [1] | 4-chloro-3-methoxy phenol product [2] | CO2 product [4] | Dicamba Decarboxylase Activity [5] | 2,5-DCA product [6] | other results
1 | B1 | detected | detected | detected | native dicamba decarboxylase activity | detected | decarboxylation activity of dicamba ([3]; E. coli cell assay, 108 sequences tested): showed decarboxylation activity of dicamba
2 | B2 | not detected | not detected | not detected | have dicamba decarboxylase activity | detected | 
3 | B3 |  |  |  |  |  | Average Activity (Fold of SEQ ID NO: 109) ([7]; dicamba decarboxylation activity of point mutants of SEQ ID NO: 109 (NNK saturation mutagenesis), relative to the unchanged template): 2.9 Fold of SEQ ID NO: 109; Average Activity (Fold of SEQ ID NO: 109) ([7]; dicamba decarboxylation activity of single point mutants of SEQ ID NO:109, relative to unchanged template): 2.9 Fold of SEQ ID NO: 109; KM compared with template SEQ ID NO:109 ([8]; FIG. 6): unchanged; kcat compared with template SEQ ID NO:109 ([8]; FIG. 6): 17 fold
4 | B4 |  |  |  |  |  | Enzymatic Detection level ([3]; dicamba decarboxylation activity of the protein of the given SEQ ID NO): High; Km [8, 9]: 4.66 mM; kcat [8, 9]: 0.000533 s⁻¹; Dicamba Decarboxylation activity ([5]; Table 5, designed variants with improved activity): Yes; Percent Activity Improvement Over Parent (%) ([5]; parent SEQ ID NO:1 or SEQ ID NO:41 listed as 100): 234%
